Biological target: T1, CD123 (Homo sapiens (Human), UniProt P26951 19-305, limits assumed)
T1 construct: The CD123 construct used in the ELISA is not described; also called CD123-Signal
T1 sequence: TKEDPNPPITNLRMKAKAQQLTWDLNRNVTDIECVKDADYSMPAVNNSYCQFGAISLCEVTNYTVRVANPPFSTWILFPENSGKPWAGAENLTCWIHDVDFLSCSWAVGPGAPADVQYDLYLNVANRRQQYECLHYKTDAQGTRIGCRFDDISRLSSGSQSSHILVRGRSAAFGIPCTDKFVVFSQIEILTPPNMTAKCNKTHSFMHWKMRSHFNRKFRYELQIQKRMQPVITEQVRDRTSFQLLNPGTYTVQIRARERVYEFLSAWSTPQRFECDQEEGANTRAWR
Test: ELISA
Parameters: unit not given here

Binder | ELISA_avg
D domain of SEQ ID NO: 426 (designed binder) MGSWWEFEERLWAIDYRLHALGGSEAELAAFEKEIAAFESELQAYKGKGNPEVEMLRSWAAEIRALLQAYRHN | 4.1
D domain of SEQ ID NO: 431 (designed binder) MGSWSEFEHRLEAIESRLFALGGSEAELAAFEKEIAAFESELQAYKGKGNPEVEDLRSEAAWIREQLQAYRHN | 7.6
D domain of SEQ ID NO: 432 (designed binder) MGSWFEFWERLDAIEWRLWALGGSEAELAAFEKEIAAFESELQAYKGKGNPEVEELRSTAADIRRYLQAYRHN | 3.4
D domain of SEQ ID NO: 433 (designed binder) MGSWFEFWGRLEAIESRLKALGGSEAELAAFEKEIAAFESELQAYKGKGNPEVEELREHAAWIRAYLQAYRHN | 4.9
D domain of SEQ ID NO: 434 (designed binder) MGSWQEFTMRLDAIYNRLETLGGSEAELAAFEKEIAAFESELQAYKGKGNPEVEWLRQSAANIRSELQAYRHN | 13.7
D domain of SEQ ID NO: 465 (designed binder) MGSWFEFYERLDAINWRLFALGGSEAELAAFEKEIAAFESELQAYKGKGNPEVEALRGEAAAIREDLQAYRHN | 3
D domain of SEQ ID NO: 466 (designed binder) MGSWNEFEDRLDAIWWRLFALGGSEAELAAFEKEIAAFESELQAYKGKGNPEVEALRVEAAFIRTMLQAYRHN | 5.1
D domain of SEQ ID NO: 467 (designed binder) MGSWFYFKDDLADINYMLEALGGSEAELAMFEDDIAGFELTLLKYKGKGNPEVEALRKEAAAIRDELQAYRHN | 3.7
D domain of SEQ ID NO: 468 (designed binder) MGSWHFFKDDLAWIKNELEALGGSEAELAMFEDDIAMFETMLQSYKGKGNPEVEALRKEAAAIRDELQAYRHN | 3.2
D domain of SEQ ID NO: 469 (designed binder) MGSWHWFKTDLADIKEELEALGGSEAELAMFEDDIAEFEEFLQMYKGKGNPEVEALRKEAAAIRDELQAYRHN | 3.5
D domain of SEQ ID NO: 470 (designed binder) MGSWWLFKDDLAEIKYWLEALGGSEAELAFFEDDIAEFERGLQIYKGKGNPEVEALRKEAAAIRDELQAYRHN | 3.3
D domain of SEQ ID NO: 471 (designed binder) MGSWYEFKDDLAEIKEWLEALGGSEAELAFFELDIADFEWLLQLYKGKGNPEVEALRKEAAAIRDELQAYRHN | 3.8
D domain of SEQ ID NO: 472 (designed binder) MGSWQWFKDDLAYIKETLEALGGSEAELALFEDMIADFEFELQWYKGKGNPEVEALRKEAAAIRDELQAYRHN | 6.3
D domain of SEQ ID NO: 473 (designed binder) MGSWILFKDDLAWIKETLEALGGSEAELAFFEDNIADFEEQLQGYKGKGNPEVEALRKEAAAIRDELQAYRHN | 6
D domain of SEQ ID NO: 474 (designed binder) MGSWIVFKDDLADIKRWLEALGGSEAELAMFEDEIADFEWQLQDYKGKGNPEVEALRKEAAAIRDELQAYRHN | 3.9
D domain of SEQ ID NO: 475 (designed binder) MGSWGHFKQDLAWIKDTLEALGGSEAELAFFEDDIAMFEMELQDYKGKGNPEVEALRKEAAAIRDELQAYRHN | 4.9
D domain of SEQ ID NO: 476 (designed binder) MGSWGYFKDDLAWIKGELEALGGSEAELAEFEWFIAVFEEDLQVYKGKGNPEVEALRKEAAAIRDELQAYRHN | 4.5
D domain of SEQ ID NO: 477 (designed binder) MGSWYWFKDDLAEIKGLLEALGGSEAELAEFEDEIAVFEQELQEYKGKGNPEVEALRKEAAAIRDELQAYRHN | 10.4
D domain of SEQ ID NO: 478 (designed binder) MGSWMFFKEDLADIKWALEALGGSEAELAFFEEEIALFEQHLQQYKGKGNPEVEALRKEAAAIRDELQAYRHN | 3.2
D domain of SEQ ID NO: 482 (designed binder) MGSWTYFKDDLADIKQWLEALGGSEAELAFFEIEIAEFEEELQEYKGKGNPEVEALRKEAAAIRDELQAYRHN | 4.6
D domain of SEQ ID NO: 479 (designed binder) MGSWTFFKEDLAGIKWELEALGGSEAELAWFEDEIALFEEELQEYKGKGNPEVEALRKEAAAIRDELQAYRHN | 7
D domain of SEQ ID NO: 480 (designed binder) MGSWVFFKDDLADIKDELEALGGSEAELAFFEIAIALFEWELQEYKGKGNPEVEALRKEAAAIRDELQAYRHN | 8.8
D domain of SEQ ID NO: 483 (designed binder) MGSWTVFKYDLADIKWWLEALGGSEAELADFEEEIAEFEEELQEYKGKGNPEVEALRKEAAAIRDELQAYRHN | 3.9
D domain of SEQ ID NO: 481 (designed binder) MGSWTFFKNDLAEIKDWLEALGGSEAELADFEWDIAEFEYSLQEYKGKGNPEVEALRKEAAAIRDELQAYRHN | 3.9
D domain of SEQ ID NO: 484 (designed binder) MGSWYWFKQDLAHIKSMLEALGGSEAELAWFEEDIADFESELQEYKGKGNPEVEALRKEAAAIRDELQAYRHN | 3.3
D domain of SEQ ID NO: 485 (designed binder) MGSWTFFKWDLADIKANLEALGGSEAELAWFEEDLAGFEAELQEYKGKGNPEVEALRKEAAAIRDELQAYRHN | 4.8
D domain of SEQ ID NO: 494 (designed binder) MGSWVTFKDELADIKDFLEALGGSEAELAFFEVDIAEFEAELQFYKGKGNPEVEALRKEAAAIRDELQAYRHN | 7.6
D domain of SEQ ID NO: 496 (designed binder) MGSWETFKYELAEIKDYLEALGGSEAELAWFEDDIAEFEFELQYYKGKGNPEVEALRKEAAAIRDELQAYRHN | 4.4

More lines, now with the values ahead:

ELISA_avg | Binder
3.8 | D domain of SEQ ID NO: 486 (designed binder) MGSWSFFKEELANIQVYLEALGGSEAELAWFEEDIADFEEDLQHYKGKGNPEVEALRKEAAAIRDELQAYRHN
3.4 | D domain of SEQ ID NO: 487 (designed binder) MGSWEFFKYELADIKDELEALGGSEAELAWFEEDIATFEEWLQGYKGKGNPEVEALRKEAAAIRDELQAYRHN
5.5 | D domain of SEQ ID NO: 488 (designed binder) MGSWQTFKDELAHIKWELEALGGSEAELAWFEWDIANFEEELQEYKGKGNPEVEALRKEAAAIRDELQAYRHN
9.4 | D domain of SEQ ID NO: 489 (designed binder) MGSWYWFKEELAFIKWELEALGGSEAELALFEEDIAYFEEMLQEYKGKGNPEVEALRKEAAAIRDELQAYRHN
3.3 | D domain of SEQ ID NO: 490 (designed binder) MGSWNSFKDELAEIKAELEALGGSEAELAFFEEDIAWFEEHLQQYKGKGNPEVEALRKEAAAIRDELQAYRHN
3.4 | D domain of SEQ ID NO: 491 (designed binder) MGSWDLFKWELAEIKLGLEALGGSEAELAEFEYDIAWFEEDLQDYKGKGNPEVEALRKEAAAIRDELQAYRHN
3.8 | D domain of SEQ ID NO: 492 (designed binder) MGSWIFFKQDLAEIKLNLEALGGSEAELAWFEDDIAWFESHLQDYKGKGNPEVEALRKEAAAIRDELQAYRHN
4 | D domain of SEQ ID NO: 493 (designed binder) MGSWHLFKWTLAEIKYELEALGGSEAELAWFEDDIATFEEELQWYKGKGNPEVEALRKEAAAIRDELQAYRHN
4.6 | D domain of SEQ ID NO: 495 (designed binder) MGSWVYFKDELADIKDFLEALGGSEAELAEFEEDIATFEYDLQWYKGKGNPEVEALRKEAAAIRDELQAYRHN
5 | D domain of SEQ ID NO: 497 (designed binder) MGSWNTFKYELAEIKHFLEALGGSEAELAMFEDDIAMFEWELQEYKGKGNPEVEALRKEAAAIRDELQAYRHN
9.9 | D domain of SEQ ID NO: 498 (designed binder) MGSWYVFKDELAEIKQFLEALGGSEAELAWFEDDIAEFETQLQHYKGKGNPEVEALRKEAAAIRDELQAYRHN
15 | D domain of SEQ ID NO: 499 (designed binder) MGSWIFFKEQLAIIKWELEALGGSEAELAWFEDDIAAFEDDLQFYKGQGNPEVEALRKEAAAIRDELQAYRHN
8.2 | D domain of SEQ ID NO: 500 (designed binder) MGSWEFFKEVLAEIKYDLEALGGSEAELAWFETDIAGFEIDLQVYKGKGNPEVEALRKEAAAIRDELQAYRHN
3.1 | D domain of SEQ ID NO: 501 (designed binder) MGSWVFFKEDLATIKNDLEALGGSEAELAWFEMMIADFEADLQYYKGKGNPEVEALRKEAAAIRDELQAYRHN
4.3 | D domain of SEQ ID NO: 502 (designed binder) MGSWEEFKEDLAEIKVWLEALGGSEAELAWFEMGIADFEDGLQFYKGKGNPEVEALRKEAAAIRDELQAYRHN

— US20250026849A1 (ARCELLX, published 2025)
